T1: hBCMA-ECD-Fc (fusion protein of human BCMA extracellular domain Met1-Ala54 and human IgG1 Fc fragment … (human, UniProt Q02223 1-54))
T1 construct: range 1-54; also the immunogen; also called soluble extracellular domain of human BCMA; not shown: human IgG1 Fc fragment, Pro100-Lys330
T1 sequence (looked up): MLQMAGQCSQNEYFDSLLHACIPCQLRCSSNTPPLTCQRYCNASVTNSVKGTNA

T2: Recombinant human TACI/TNFRSF13B Fc chimeric protein, CF (hTACI-ECD-Fc) (human, UniProt O14836 1-165)
T2 construct: extracellular domain; bought reagent; not shown: Fc part of the bought chimera is not described
T2 sequence (looked up): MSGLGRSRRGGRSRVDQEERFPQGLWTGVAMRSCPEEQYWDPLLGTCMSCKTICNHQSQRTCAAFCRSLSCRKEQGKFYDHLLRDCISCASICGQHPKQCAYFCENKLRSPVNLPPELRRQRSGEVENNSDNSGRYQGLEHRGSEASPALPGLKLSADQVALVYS

T3: human BCMA on cells (L-BCMA+, K562-BCMA+, A549-BCMA-1D6) (human, UniProt Q02223 1-184)
T3 construct: whole, on cells; the cell line of each assay is named under assay; also called L-BCMA-1E6-A4; K562-BCMA-B22D8
T3 sequence (looked up): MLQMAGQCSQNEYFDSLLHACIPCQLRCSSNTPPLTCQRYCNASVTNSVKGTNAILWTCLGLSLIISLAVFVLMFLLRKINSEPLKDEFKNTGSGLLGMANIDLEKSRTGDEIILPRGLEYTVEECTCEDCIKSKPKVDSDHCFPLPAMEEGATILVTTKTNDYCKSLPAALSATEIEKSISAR


Assays:
[1] = biological target: T1, hBCMA-ECD-Fc (fusion protein of human …); experiment: ELISA, hybridoma supernatant
[2] = biological target: T4, cynoBCMA-ECD-Fc (machin BCMA extracellular domain Fc fusion) (machin); experiment: ELISA, hybridoma supernatant
T4 construct: extracellular domain; also called soluble extracellular domain of machin BCMA

[3] = biological target: T5, Recombinant hFc fusion protein control (NC-Fc); experiment: ELISA, hybridoma supernatant
T5 construct: negative control antigen of the screens; also called NC-hFc

[4] = biological target: T1, hBCMA-ECD-Fc (fusion protein of human …); experiment: ELISA, purified hybridoma antibody
[5] = biological target: T2, Recombinant human TACI/TNFRSF13B Fc …; experiment: ELISA, purified hybridoma antibody
[6] = biological target: T3, human BCMA on cells (L-BCMA+, …); experiment: FACS, hybridoma supernatant, BCMA+ cells; also: test concentration or dose not given here
[7] = biological target: T4, cynoBCMA-ECD-Fc (machin BCMA …); experiment: ELISA, purified hybridoma antibody
[8] = biological target: T1, hBCMA-ECD-Fc (fusion protein of human …); experiment: ELISA, chimeric antibody supernatant; also: test concentration or dose not given here
[9] = biological target: T3, human BCMA on cells (L-BCMA+, …); experiment: FACS, chimeric antibody supernatant, L-BCMA+ cells; also: test concentration or dose not given here

Row | Binder | ELISA (OD450 nm) [1] | ELISA (OD450 nm) [2] | ELISA (OD450 nm) [3] | EC50 [4] | binding result [5] | FACS (MFI) [6] | EC50 [7] | ELISA (OD450 nm) [8] | FACS (MFI) [9]
1 | hybridoma antibody 105C10F1 (mAb004) (antibody, IgG2b, V domains shown, murine hybridoma antibody, IgG2b,κ; re-named CP03; also called CP03) VH: EVKLLQSGGGLVQPGGSLKLSCAASGIDFSRYWMSWVRRAPGKGLEWIGEINPDSSTINYAPSLKDKFIISRDAAKNTLYLQMSKVRSEDTALYYCATLYYDYDGDYAMDYWGQGTSVTVSS VL: DIVMTPSQKFMSTSVGDRVSVTCKASQNVGTNVAWYQQKPGQSPKALIYSASYRYSGVPDRFTGSGSGTDFTLTISNVQSEDLAEYFCQHYNSYPFTFGSGTKLEIK | 3.42 OD450 | 0.18 OD450 | 0.1 OD450 | 38 pM | no binding | 1960 MFI | – | – | –
2 | hybridoma antibody 152D8E8 (mAb013) (antibody, IgG1, V domains shown, murine, IgG1,κ; re-named CP09; also called CP09) VH: QVTLKESGPGILQSSQTLSLTCSFSGFSLNTSGMGVNWIRQSSGKDLEWLAHIYWNDDKRYNPSLKSRLTISKDTSRNQVFLRITSVDATDTATYFCCRSRLSFDYWGHGTTLTVSS VL: DIKMTQSPSSMYVSLGERVTITCKASQDINRNLSWFQQKPGKSPKTLIYRANRLVDGVPLRFSGSGSGQDYSLTISSLEYEDMGIYYCLQYDEFPRTFGGGTKLEIK | – | 3.31 OD450 | 0.23 OD450 | – | no binding | – | – | – | –
3 | hybridoma antibody 109C5F3C1 (mAb010) (antibody, V domains shown, murine; re-named CP06; also called CP06) VH: EVQLQQSGPVLVKPGASVKMSCKVSGYTFTDYYMNWVKQSHGKSLEWIGVITPYNGANRYNQKFKGKATLTVDKSSSTAYMEVSSLTSEDSAVYYCARGDSIYVMDYWGQGTSVIVSS VL: not shown | 3.57 OD450 | 3.41 OD450 | 0.57 OD450 | 180 pM | no binding | 2890 MFI | 180 pM | – | –
4 | hybridoma antibody 99B3G3 (mAb002) (antibody, IgG1, V domains shown, murine hybridoma antibody, IgG1,κ; re-named CP02; also called CP02) VH: EVQLQQSGPVLVKPGASVKMSCKASGYTFTDLYMNWVKQSHGKSLEWIGVINPYNGGTSYNQKFKAKATLTVDKSSITAYMELNSLTSEDSAVYYCARGDSIYVMDYWGQGTSVTVSS VL: not shown | 3.68 OD450 | 3.65 OD450 | 0.14 OD450 | 32 pM | no binding | 1930 MFI | 230 pM | – | –
5 | hybridoma antibody 100H2D12C6 (mAb009) (antibody, IgG1, V domains shown, murine, IgG1,κ) VH: EVQLQQSGPVLVKPGASVKMSCKASGYTFTDLYMNWVKQSHGKSLEWIGVINPYNGGTSYNQKFKAKATLTVDKSSITAYMELNSLTSEDSAVYYCARGDSIYVMDYWGQGTSVTVSS VL: not shown | 3.37 OD450 | 3.48 OD450 | 0.13 OD450 | 33 pM | no binding | 1140 MFI | 33 pM | – | –
6 | hybridoma clone 97B8G8D12 (antibody, V domains shown, murine hybridoma supernatant; gave no antibody in small-batch production) VH: EVQLQQSGPVLVKPGASVKMSCKASGYTFTDLYMNWVKQSHGKSLEWIGVINPYNGGTSYNQKFKAKATLTVDKSSITAYMELNSLTSEDSAVYYCARGDSIYVMDYWGQGTSVTVSS VL: not shown | 3.06 OD450 | 3.37 OD450 | 0.13 OD450 | – | – | 358 MFI | – | – | –
7 | chimeric antibody of hybridoma 99B3G3 (antibody, human IgG1, kappa, V domains shown, IgG1,κ chimeric antibody, HEK 293T supernatant) VH: EVQLQQSGPVLVKPGASVKMSCKASGYTFTDLYMNWVKQSHGKSLEWIGVINPYNGGTSYNQKFKAKATLTVDKSSITAYMELNSLTSEDSAVYYCARGDSIYVMDYWGQGTSVTVSS VL: not shown | – | – | – | – | – | – | – | 2.3 OD450 | 2180 MFI
8 | hybridoma antibody 151A9A4 (mAb012) (antibody, IgG2b, V domains shown, murine, IgG2b,κ; re-named CP08; also called CP08) VH: EVQLQQSGPVLVKPGASVKMSCKASGYTFTDYSLNWVKQSHGKSLEWIGVVNPYNGGTTYNQKFKGKATLTVDKSSSTAYMELNSLTSEDSAVYYCARPDSIYVMDSWGQGTSVTVSS VL: not shown | 3.34 OD450 | 3.4 OD450 | 0.24 OD450 | 170 pM | no binding | 2920 MFI | 150 pM | – | –
9 | hybridoma antibody 143D6F4 (mAb011) (antibody, IgG2b, V domains shown, murine, IgG2b,κ; re-named CP07; also called CP07) VH: EVQLQQSGPVLVKPGASVKMSCKASGYTFTDYSLNWVKQSHGKSLEWIGVVNPYNGGTSHNQKFKGKATLTVDKSSSTAYMELNSLTSEDSAVYYCARPDSIYVMDYWGQGTSVTVSS VL: not shown | 3.26 OD450 | 3.4 OD450 | 0.2 OD450 | 150 pM | no binding | 1510 MFI | 170 pM | – | –
10 | hybridoma clone 107A9A4D2 (antibody, V domains shown, murine hybridoma supernatant) VH: EVQLQQSGPVLVKPGASVKMSCKASGYTFTDLYMNWLKQSHGKRLEWIGVINPYNGGTSYNQKFKGKATLTVDKSSSTAYMDLNSLTSEDSAVYYCARGDSIYVMDYWGQGTSFTVSS VL: not shown | 3.51 OD450 | 3.58 OD450 | – | – | – | 4650 MFI | – | – | –
11 | hybridoma clone 107A11F1B7 (antibody, V domains shown, murine hybridoma supernatant; re-named CP04; also called CP04) VH: EVQLQQSGPVLVKPGASVKMSCKASGYTFTDLYMNWLKQSHGKRLEWIGVINPYNGGTSYNQKFKGKATLTVDKSSSTAYMDLNSLTSEDSAVYYCARGDSIYVMDYWGQGTSFTVSS VL: not shown | 3.53 OD450 | 3.5 OD450 | – | – | – | 5180 MFI | – | – | –
12 | hybridoma antibody 102A12H6 (mAb003) (antibody, IgG1, V domains shown, murine hybridoma antibody, IgG1,κ) VH: EVQLQQSGPELVKPGASVKISCKASGYSFTGYYMNWVKQSPEKSLEWIGEINSSTGGTTYNQKFKAKATMTVDKSSNTAYMELKSLTSEDSAVYYCRYYGSDWHFDVWGTGTTVTVSS VL: QIVLTQSPALMSASPGEKVTMTCSASSSVSYMYWYQQKPRSSPKPWIYLTSSLASGVPARFSGSGSGTSYSLTISTMEAEDAATYYCQQWSSDPLTFGAGTKLELK | 3.6 OD450 | 3.53 OD450 | 0.12 OD450 | 58 pM | no binding | 762 MFI | 62 pM | – | –
13 | hybridoma antibody 113B3F12 (mAb008) (antibody, IgG2b, V domains shown, murine hybridoma antibody, IgG2b,κ) VH: EVQLQQSGPVLVKPGASVKMSCKASGYTFTDYYMNWVKQSHGKSLEWIGVINPYNGGTDYNQKFKGKATLTVDKSSSTAYMELNSLTSEDSAVYYCARRRESYGTSYQGAYFDSWGQGTTLTVSS VL: DIQMTQTTSSLSASLGDRVTISCRASQDISNYLNWYQQKPDGTVKLLIYYTSRLHSGVPSRFSGSGSGTDYSLSISDLEQEDIATYFCQQVITLPWTFGGGTKLEIK | 3.9 OD450 | 0.18 OD450 | 0.14 OD450 | 150 pM | – | 3890 MFI | – | – | –
14 | hybridoma antibody 6G10-1D7 (mAb001) (antibody, IgG1, V domains shown, tested as supernatant and purified; also called CP01) VH: EVQLQQSGPELVKPGASMKISCKASDYSFTDYIMTWVKQSHGKNLEWIGLINPYNGGTTYNQKFKDKATFTVDKSSTTAYMDLLSLTSEDSAVYYCARRGITTDYYTMDYWGQGTSVTVSS VL: DIVMTQSQRFMSTSVGDRVSITCKASQSVGTAVAWYQQTPGQFPKLLIYSTSNRYTGVPDRFTGSGSGTDFTLTISNMQSEDLADYFCQQYSTYPLTFGSGTKLELK | 2.9 OD450 | 1.95 OD450 | 0.08 OD450 | 34 pM | no binding | 3880 MFI | – | – | –
15 | chimeric antibody of hybridoma 6G10-1D7 (antibody, human IgG1, kappa, V domains shown, IgG1,κ chimeric antibody, HEK 293T supernatant) VH: EVQLQQSGPELVKPGASMKISCKASDYSFTDYIMTWVKQSHGKNLEWIGLINPYNGGTTYNQKFKDKATFTVDKSSTTAYMDLLSLTSEDSAVYYCARRGITTDYYTMDYWGQGTSVTVSS VL: DIVMTQSQRFMSTSVGDRVSITCKASQSVGTAVAWYQQTPGQFPKLLIYSTSNRYTGVPDRFTGSGSGTDFTLTISNMQSEDLADYFCQQYSTYPLTFGSGTKLELKR | – | – | – | – | – | – | – | 2.35 OD450 | 3470 MFI

Reference: patent publication US20230181640A1 (SHANGHAI ABELZETA, published 2023)
